Assay results as given in patent US20150010572A1 (SAMSUNG ELECTRONICS, published 2015).
Numbering of substitutions follows the chain as printed.

T1: recombinant hAng-2 (C-His, R&D Systems) (human, UniProt O15123 19-496)
T1 construct: Bought protein; also called human Ang-2 protein; not shown: C-terminal His tag
T1 sequence: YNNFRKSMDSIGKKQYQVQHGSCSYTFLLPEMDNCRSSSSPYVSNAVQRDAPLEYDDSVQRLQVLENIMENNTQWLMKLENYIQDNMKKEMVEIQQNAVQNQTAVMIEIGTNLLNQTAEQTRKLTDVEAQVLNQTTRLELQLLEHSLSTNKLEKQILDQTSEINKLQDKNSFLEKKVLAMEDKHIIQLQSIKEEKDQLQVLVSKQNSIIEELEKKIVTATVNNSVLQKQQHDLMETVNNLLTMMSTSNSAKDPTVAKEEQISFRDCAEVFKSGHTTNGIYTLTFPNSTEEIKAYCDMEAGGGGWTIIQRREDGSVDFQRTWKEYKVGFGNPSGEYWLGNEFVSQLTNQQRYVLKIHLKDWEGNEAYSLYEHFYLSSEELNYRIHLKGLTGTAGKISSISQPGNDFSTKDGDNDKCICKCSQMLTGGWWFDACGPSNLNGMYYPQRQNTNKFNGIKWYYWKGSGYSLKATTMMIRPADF

T2: mutant Ang-2 protein, K468 substituted with alanine (FLAG-tagged at N-terminal) (human, UniProt O15123 281-496, limits assumed)
T2 chain: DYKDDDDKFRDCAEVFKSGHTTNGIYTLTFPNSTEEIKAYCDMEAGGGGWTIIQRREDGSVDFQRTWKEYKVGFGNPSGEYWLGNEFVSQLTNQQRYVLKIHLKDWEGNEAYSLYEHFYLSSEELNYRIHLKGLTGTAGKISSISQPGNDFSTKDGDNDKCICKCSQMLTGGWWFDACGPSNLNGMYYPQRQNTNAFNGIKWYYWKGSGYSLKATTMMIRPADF

T3: mutant Ang-2 protein, P452 substituted with alanine (FLAG-tagged at N-terminal) (human, UniProt O15123 281-496, limits assumed)
T3 chain: T2 chain with P180A, A196K

T4: mutant Ang-2 protein, P419 substituted with alanine (FLAG-tagged at N-terminal) (human, UniProt O15123 281-496, limits assumed)
T4 chain: T2 chain with P147A, A196K

T5: mutant Ang-2 protein, F469 substituted with alanine (FLAG-tagged at N-terminal) (human, UniProt O15123 281-496, limits assumed)
T5 chain: T2 chain with A196K, F197A

B1: SAIT-Ang-2-AB-m8B3 (antibody, V domains shown)
VH: DVQLQESGPGLVKPSQSLSLSCTVTGYSIASDYAWNWIRQFPGNKVEWMGYINYRGNTDYNPSLKSRSSINRDTSKNQFFLQLNSVTTGDTATYYCARGNFEGAMDYWGQGTSVTVSS
VL: TIVMTQTPKFLLVSAGDRITITCKASQSVSNDVAWYQQKPGQSPKLLIYYASNRYPGVPDRFTGSGYGTDFTFTISTVQAEDLAVYFCQQDYTSPWTFGGGTELEIK
notes: also called KCLRF-BP-00293
B2: SAIT-Ang-2-AB-m2E7 (antibody, V domains shown)
VH: DLQLQESGPGLVKPSQSLSLTCTVTGYSITSDYAWNWIRQFPGNKLEWMGYISYSGSTSYNPSLKSRISITRDTSKNQFFLQLNSLTTEDTATYYCARGDYGNYVGPMDYWGQGTSVTVSS
VL: B1 VL with T1S, I19V, Q37R, P56T, T93S, W96L, G100A, G101R, E103K, I106L
notes: also called KCLRF-BP-00294

How the values were obtained:
[1] = target: T1, recombinant hAng-2 (C-His, R&D Systems); assay: SPR, BIAcore T100; hAng-2 (C-His) captured by anti-His antibody on CM5 chip, antibody flowed
Experimental: The binding affinities of the above 3 kinds of antibodies to human Ang-2 protein were measured by a SPR technology using a BIAcore T100 (GE Healthcare). The SPR technology uses refractive index change of light which passes a sensor chip according to the state of materials coated onto the sensor chip, and if an antigen or an antibody is flowed onto a chip coated with the antigen or antibody, it causes changes in refractive index due to their binding and Kd values are thus calculated from the measured values.
First, anti-His antibody was immobilized on a CM5 sensor chip (GE healthcare) up to 8,000 RU levels using a pH 5.0 acetate solution and an amine coupling kit (GE Healthcare). A recombinant hAng-2 (C-His, R&D Systems) protein was flowed onto the chip to be captured at 100 to 200 RU levels.

[2] = target: T2, mutant Ang-2 protein, K468 substituted …; assay: ELISA, antibody coated, 250 ng FLAG-tagged mutant Ang-2, anti-FLAG-HRP, OD450 relative to native Ang-2
Experimental: (§1) Each well of a 96-well MaxiSorp™ flat-bottom plate (Nunc) was coated with 50 ul (microliter) of 1000 nM antibodies (Example 2). Then, the plate was washed five times with a 0.05% (v/v) Tween-20 containing PBS (PBST) and blocked with a 1% (v/v) BSA containing PBS at a room temperature for 2 hours. 250 ng of each mutant Ang-2 protein obtained by substituting S417, Q418, P419, N421, 1434, D448, A449, P452, Y460, N467, K468, or F469 residue of Ang-2 protein tagged with a FLAG sequence ([…], Sigma) at its N-terminal with alanine was added to each well of the plate, which was then allowed to react at a room temperature for 2 hours.
(§2) The plate was washed five times with a 0.05% (v/v) Tween-20 containing PBS, reacted with an anti-FLAG antibody (SIGMA) conjugated with HRP which was diluted in a 1% (v/v) BSA containing PBS at a ratio of 1:5,000 (v/v) at a room temperature for 1 hour, and washed five times with a 0.1% (v/v) Tween-20 containing PBS.
(§3) Finally, 50 ul of TMB substrates (Cell signaling) was added to each well of the plate to induce color development reaction at a room temperature for 3 min. and the reaction was ceased by the addition of 50 ul of Stop solution (Cell signaling) and then, OD450 values were measured on a plate reader (Molecular Devices). By comparing binding affinities with mutated Ang-2 to those of unmutated Ang-2, each epitope of Ang-2 antibodies was identified. The thus obtained measurement results of the binding affinities (%) of mutant Ang-2 against the binding affinity of the native Ang-2 are shown in the following Table 9.

[3] = target: T3, mutant Ang-2 protein, P452 substituted …; assay: as above
Experimental: as §1, §2, §3

[4] = target: T4, mutant Ang-2 protein, P419 substituted …; assay: as above
Experimental: as §1, §2, §3

[5] = target: T5, mutant Ang-2 protein, F469 substituted …; assay: as above
Experimental: as §1, §2, §3

Binder	Kd [1]	% at RBD binding (mutant Ang-2 against native Ang-2) [2]	% at RBD binding (mutant Ang-2 against native Ang-2) [3]	% at RBD binding (mutant Ang-2 against native Ang-2) [4]	% at RBD binding (mutant Ang-2 against native Ang-2) [5]
B1	0.0086 nM	105%	102%	8.7%	106%
B2	30.6 nM	101%	90.1%	88.6%	102%
